Article doi:10.1101/2025.07.03.663104 (bioRxiv, 2025)

Biological target: ThBP24k (recombinant, no tag named) (Magnaporthe oryzae, UniProt G4NG01)
Assay: BLI
Settings: both partners purified

B1: OsPR5-His (natural protein)
chain: ATFTITNRCSFTVWPAATPVGGGVQLSPGQTWTINVPAGTSSGRVWGRTGCSFDGSGRGSCATGDCAGALSCTLSGQKPLTLAEFTIGGSQDFYDLSVIDGYNVAMSFSCSSGVTVTCRDSRCPDAYLFPEDNTKTHACSGNSNYQVVFCP
Kd: 2.41 nM
